{
  "source": "patent US20250177503A1",
  "about": "“COMPOSITIONS AND METHODS FOR TREATING AUTOIMMUNE DISORDERS” (THE REGENTS OF THE UNIVERSITY OF MICHIGAN, priority 2022, published 2025)",
  "molecules": {"B1": {"name": "IL-2: recombinant murine IL-2 (wild type IL-2 protein) (protein, UniProt P04351 21-169, looked up)", "Interleukin-2": "APTSSSTSSSTAEAQQQQQQQQQQQQHLEQLLMDLQELLSRMENYRNLKLPRMLTFKFYLPKQATELKDLQCLEDELGPLRHVLDLTQSKSFQLEDAENFISNIRVTVVKLKGSDNTFECQFDDESATVVDFLRRWIAFCQSIISTSPQ"}},
  "tested_on": "CD4+CD25+Foxp3+T regulatory cells (Tregs)",
  "assay": "Example III: dosing regimen optimisation, ND-OVA + IL-2/IC vs ND-OVA + wtIL-2, flow cytometry of peripheral blood CD4+ T cells",
  "format": "in vivo, C57BL/6 mice",
  "conditions": "summary of findings",
  "experimental": "Animals were cared for following federal, state, and local guidelines. All work performed on animals was in accordance with and approved by Institutional Animal Care & Use Committee (IACUC) at the University of Michigan, Ann Arbor. Seven-week-old female C57BL/6 mice were randomly divided into 6 groups with 5 mice in each group. For Group 1 (ND-OVA_D−3,+7+IL2/IC_D3,4,5): 0.1 mL of ND-OVA (containing 0.1 mg OVA-II peptide) was injected into each mouse subcutaneously at the tail base at Day −3 and Day 7; 0.1 mL IL2/IC (containing 1 μg murine IL-2 and […] IL-2 mAb) was injected into each mouse intraperitoneally (i.p.) at Days 0, 1, 2, and Days 10, 11, 12. For Group 2 (ND-OVA_D−4,+6+IL2/IC_D4,5,6): 0.1 mL of ND-OVA (containing 0.1 mg OVA-II peptide) was injected into each mouse subcutaneously at the tail base at Day −4 and Day 6; 0.1 mL IL2/IC (containing […] murine IL-2 and 5 μg IL-2 mAb) was injected into each mouse intraperitoneally (i.p.) at Days 0, 1, 2, and Days 10, 11, 12. For Group 3 (ND-OVA_D−3,+7+IL2/IC_D3,4,5,6,7): 0.1 mL of ND-OVA (containing 0.1 mg OVA-II peptide) was injected into each mouse subcutaneously at the tail base at Day −3 and Day 7; 0.1 mL IL2 (containing 1 μg murine IL-2) was injected into each mouse intraperitoneally (i.p.) at Days 0, 1, 2, 3, 4 and Days 10, 11, 12, 13, 14. […]",
  "data": [
    {"molecule": "B1", "values": [
      {"measurement": "expansion of total Tregs and antigen-specific Tregs", "result": "fails to expand"}
    ]}
  ]
}
